These results are taken from paper PMC8586454, “Structural and Functional Insights Into Skl and Pal Endolysins, Two Cysteine-Amidases With Anti-pneumococcal Activity. Dithiothreitol (DTT) Effect on Lytic Activity” (Frontiers in Microbiology, 2021).

What is called stoichiometry N is a count of units in the complex or per binding partner.

One data set deals with T1, Pal (Streptococcus phage Dp-1, UniProt O03979).
T1 construct: full-length, untagged, E. coli pT7-7 (pPal, amplified from pMSP11); DEAE-cellulose purified with choline elution, dialysed
T1 sequence (O03979 1-296): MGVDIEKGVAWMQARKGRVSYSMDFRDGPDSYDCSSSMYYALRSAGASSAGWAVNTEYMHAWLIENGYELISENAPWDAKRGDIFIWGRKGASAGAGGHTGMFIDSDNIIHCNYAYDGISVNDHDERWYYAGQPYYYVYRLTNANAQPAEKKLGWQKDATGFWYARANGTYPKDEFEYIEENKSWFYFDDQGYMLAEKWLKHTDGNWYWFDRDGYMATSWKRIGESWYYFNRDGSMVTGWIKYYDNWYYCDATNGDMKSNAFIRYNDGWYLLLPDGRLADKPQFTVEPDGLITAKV
As to the kind of experiment: SAXS of choline-bound dimer. Type of data set: binding. The following applies: 20 mM PB pH 8.0, 4 °C; saturating choline.

In data set [1] the target is Skl Y264H mutant (Streptococcus mitis prophage φSK137). As to the kind of experiment: AUC; sedimentation equilibrium, 20°C, 50 mM Tris–HCl pH 8.0, increasing choline.
Data set [2] shares this target. The data set is described as follows: AUC; sedimentation velocity, 20°C, PB pH 6.5, under the conditions of the CD titration; choline saturating the lower affinity sites.
Data set [3] deals with Skl endolysin (N-acetylmuramoyl-L-alanine amidase of the Streptococcus mitis prophage φSK137), wild type (Streptococcus mitis prophage φSK137). As to the kind of experiment: SAXS; 4°C, 20 mM PB (Pal) or 50 mM Tris–HCl (Skl) pH 8.0, 2–8 mg/ml protein extrapolated to infinite dilution, saturating choline.
Data set [4] has the same target. The data set is described as follows: AUC; sedimentation velocity, 20°C, PB pH 6.5, under the conditions of the CD titration; choline saturating the lower affinity sites.
Data set [5] has the same target. As to the kind of experiment: AUC; sedimentation equilibrium, 20°C, single-species model; choline-saturated.
Data set [6] concerns the molecule itself. As to the kind of experiment: SAXS; 4°C, 20 mM PB (Pal) or 50 mM Tris–HCl (Skl) pH 8.0, 2–8 mg/ml protein extrapolated to infinite dilution, saturating choline.
Data set [7] concerns the molecule itself. The data set is described as follows: non-reducing SDS-PAGE (intermolecular disulfide); 0.36 mg/ml protein pretreated with 40 mM iodoacetamide, then 1% SDS, sample buffer without β-mercaptoethanol (SB), 12% gel, Coomassie stain.

With `C[N+](C)(C)CCO` [choline], the “SAXS of choline-bound dimer” value on Pal is on record as “Pal dimer in complex with choline”.
In data set [1], Skl Y264H mutant (enzyme) returned a stoichiometry N of 2. Further, the percent remaining as monomer in data set [2] was found to be 50%.
For the molecule “Skl endolysin (N-acetylmuramoyl-L-alanine amidase of the Streptococcus mitis prophage φSK137), wild type (enzyme)”, the stoichiometry N in data set [3], in data set [4] and in data set [5] was 2 each time.

B1: Pal endolysin (N-acetylmuramoyl-L-alanine amidase of the pneumococcal bacteriophage Dp-1), wild type (enzyme, UniProt O03979 1-296, looked up)
chain: MGVDIEKGVAWMQARKGRVSYSMDFRDGPDSYDCSSSMYYALRSAGASSAGWAVNTEYMHAWLIENGYELISENAPWDAKRGDIFIWGRKGASAGAGGHTGMFIDSDNIIHCNYAYDGISVNDHDERWYYAGQPYYYVYRLTNANAQPAEKKLGWQKDATGFWYARANGTYPKDEFEYIEENKSWFYFDDQGYMLAEKWLKHTDGNWYWFDRDGYMATSWKRIGESWYYFNRDGSMVTGWIKYYDNWYYCDATNGDMKSNAFIRYNDGWYLLLPDGRLADKPQFTVEPDGLITAKV
notes: Pal-coding region amplified from pMSP11; No tag; 1 μM equals 0.0345 mg/ml. 'Full length' rests on 'Pal-coding region was PCR amplified'; also called Pal WT; Pal NAM-amidase; source: E. coli BL21(DE3) or C41(DE3), pT7-7 derivative (pPal), purified (DEAE-cellulose, eluted with choline)
With B1, the “stoichiometry N” value in data set [6] is 2.

B2: Pal C112S mutant (enzyme, pneumococcal bacteriophage Dp-1, UniProt O03979 1-296, looked up)
chain: MGVDIEKGVAWMQARKGRVSYSMDFRDGPDSYDCSSSMYYALRSAGASSAGWAVNTEYMHAWLIENGYELISENAPWDAKRGDIFIWGRKGASAGAGGHTGMFIDSDNIIHSNYAYDGISVNDHDERWYYAGQPYYYVYRLTNANAQPAEKKLGWQKDATGFWYARANGTYPKDEFEYIEENKSWFYFDDQGYMLAEKWLKHTDGNWYWFDRDGYMATSWKRIGESWYYFNRDGSMVTGWIKYYDNWYYCDATNGDMKSNAFIRYNDGWYLLLPDGRLADKPQFTVEPDGLITAKV
modifications: free thiols blocked with iodoacetamide before SDS-PAGE
notes: Pal, NAM-amidase of the pneumococcal Dp-1 bacteriophage, with Cys112 changed to serine; source: E. coli BL21(DE3) or C41(DE3), pT7-7 derivative, purified (DEAE-cellulose, eluted with choline)
On to B2, for which the binding result in data set [7] was “binds”.

B3: Pal C112S–C250S double mutant (enzyme, pneumococcal bacteriophage Dp-1, UniProt O03979 1-296, looked up)
chain: MGVDIEKGVAWMQARKGRVSYSMDFRDGPDSYDCSSSMYYALRSAGASSAGWAVNTEYMHAWLIENGYELISENAPWDAKRGDIFIWGRKGASAGAGGHTGMFIDSDNIIHSNYAYDGISVNDHDERWYYAGQPYYYVYRLTNANAQPAEKKLGWQKDATGFWYARANGTYPKDEFEYIEENKSWFYFDDQGYMLAEKWLKHTDGNWYWFDRDGYMATSWKRIGESWYYFNRDGSMVTGWIKYYDNWYYSDATNGDMKSNAFIRYNDGWYLLLPDGRLADKPQFTVEPDGLITAKV
modifications: free thiols blocked with iodoacetamide before SDS-PAGE
notes: Pal, NAM-amidase of the pneumococcal Dp-1 bacteriophage, with Cys112 and Cys250 changed to serine; source: E. coli BL21(DE3) or C41(DE3), pT7-7 derivative (made from pPal-C250S), purified (DEAE-cellulose, eluted with choline)
B3: the binding result in data set [7] is “binds”.
